Measurements from patent US20130150294A1.

What was measured:
EYFP-rat α1 (rat) = EYFP-rat α1 (rat) (UniProt P06685); experiment: FRET by acceptor photobleaching, 16 LLC-PK1 cells in six experiments
[1] = target: EYFP-rat α1 mutant (D371E) (rat) (UniProt P06685); experiment: FRET by acceptor photobleaching, 20 TCN23-19 cells in three experiments

Substance Src-ECFP has an FRET efficiency (EYFP-rat α1 (rat)) of 8.1 to 18.8, an FRET efficiency (mean) (EYFP-rat α1 (rat)) of 13.2 and an FRET efficiency [1] of 10.4 to 15.6. For the same substance, the FRET efficiency (mean) [1] was 13.2.
